# B1: human PTH (1-84) (protein, UniProt P01270 32-115, looked up)
# Parathyroid hormone: SVSEIQLMHNLGKHLNSMERVEWLRKKLQDVHNFVALGAPLAPRDAGSQRPRKKEDNVLVESHEKSLGEADKADVNVLTKAKSQ
# modifications: Parathyroid hormone
# notes: human parathyroid hormone consisting of 84 amino acid residues
# Experiments:
# [1] = test system: ovariectomized (OVX) female SD rats; assay: Bone density by DXA in ovariectomized (OVX) rats after hormone administration (Example 1); type: in vivo, rat; settings: for bone density of the ramal portion / bone density of the femur / bone density of the lumbar vertebrae: four times a week for 10 weeks; for bone density of the ramal portion: FIG. 2; for bone density of the femur / bone density of the lumbar vertebrae: DXA
# Method: Forty female SD rats were used. At the age of 20 weeks after birth, 35 of the animals were subjected to OVX (ovariectomy) and the remaining five were subjected to Sham operation. Starting at the age of 30 weeks when bone resorption progressed fully, animals of the OVX group were subcutaneously administered with hormones for 10 weeks on a four-times-a-week basis. Five of the group administered with human PTH (1-84) were administered a dose of 10 μg/kg body weight, another five a dose of 40 μg/kg body weight and the last five a dose of 150 μg/kg body weight. The group administered with 17β-estradiol as estrogen consisted of 5 rats, which were administered a dose of […] body weight. Ten rats were administered with both hormones, 17β-estradiol at a dose of 10 μg/kg body weight and human PTH (1-84) at different doses of 10 μg/kg body weight (in 5 rats) and 150 μg/kg body weight (in the other five). After the hormone administration and at the age of 40 weeks after birth, the mandibular bone, femur and lumbar vertebrae were extracted and measured for bone density and bone mineral content by DXA (Aloca). Measurement on the mandibular bone was conduced at two sites, the alveolar bone portion including the posterior teeth and the ramal portion.
# [2] = test system: ovariectomized female SD rats with tooth removal; assay: Bone density and bone mineral content by DXA in OVX rats with upper jaw posterior teeth extracted (Example 2); type: in vivo, rat; settings: 150 μg/kg body weight s.c., four times a week for 10 weeks
# Excerpt: Twenty-three female SD rats (body weight; 230-250 g) were used. At the age of 20 weeks after birth, 15 of the animals were subjected to OVX (ovariectomy) and the remaining eight were subjected to Sham operation. Then, at the age of 22 weeks after birth, ten of the ovariectomized rats and four in the Sham operation group had the posterior teeth in the upper jaw extracted. Starting at the age of 30 weeks when bone resorption progressed fully, five of the ovariectomized rats that had the posterior teeth in the upper jaw extracted were subcutaneously administered with human PTH (1-84) at a dose of 150 μg/kg body weight for 10 weeks on a four-time-a-week basis. After the administration of human PTH (1-84) and at the age of 40 weeks after birth, the whole mandibular bone was extracted and the bone densities and bone mineral contents in the whole mandibular bone and the mandibular molar portion were measured by DXA (Aloca).
# [3] = OVX rats, 10, 40, 150 μg/kg body weight s.c.
# [4] = OVX rats, dose of 150 μg/kg body weight s.c.
Molecule,"bone density of the ramal portion ([1]; OVX rats, s.c.)","bone density of the mandibular alveolar bone portion ([1]; OVX rats, 150 μg/kg body weight human PTH (1-84) alone, s.c., 10 weeks, FIG. 1)","bone density of the femur [1, 3]","bone density of the lumbar vertebrae [1, 3]","bone density of the femur [1, 4]","bone density of the lumbar vertebrae [1, 4]","bone density in the mandibular bone (summary) ([1]; ovariectomized aged female rats, summary statement)",bone mineral content of whole mandibular bone ([2]; FIG. 3),bone mineral content of the mandibular molar portion ([2]; FIG. 4)
"C[C@]12CC[C@@H]3c4ccc(O)cc4CC[C@H]3[C@@H]1CC[C@@H]2O [17β-estradiol, estra-1,3,5(10)-trien-3,17β-diol, reference compound]",did not recover,,,,,,,,
B1,did not recover,significant increases over the OVX group and returned to the level for the Sham operation group,increased in a dose-dependent manner,increased in a dose-dependent manner,almost recovered to the level for the Sham operation group,almost recovered to the level for the Sham operation group,a distinct improvement in bone density,increased noticeably,increased noticeably

# Reference: patent US20020094951A1, “DENTAL REMEDIES CONTAINING PTH” (priority 1997, published 2002)
